Data published in US20100062980A1, “THERAPEUTIC USES OF BETA-ANTAGONISTS” (priority 2006, published 2010).
“Also recorded” adds a separate entry of the source.

Columns and labels:
Swiss albino male mice = type: in vivo; conditions: mice
Text: (§1) Swiss albino male mice (˜20 g) were used for the in vivo toxicity study. Male Sprague-Dawley (SD) rats were used for electrocardiogram (ECG) monitoring (3-4 weeks old, ˜80-100 g) and the Langendorff isolated perfused heart experiments (8 weeks old, ˜250 g). Animals were acquired from the university Laboratory Animal Center (LAC) and were acclimatized to the Animal Holding Unit surroundings for at least 3 days prior to the experiments. Animals were kept under standard conditions with food and water available ad lib. All animal experiments were conducted according to the protocol (776/05a) approved by the Institutional Animal Care and Use Committee (IACUC) of the National University of Singapore.
(§2) The protein was dissolved in 200 μl of 0.9% NaCl (Braun, Malaysia) and administered through the intra-peritoneal (i.p.) route for the in vivo toxicity study in mice. Intra-tail vein (i.t.v.) administration was done in the ECG monitoring study in rats. The various protein doses were dissolved in 200 μl of 0.9% NaCl solution and injected into the tail vein using a 27 G ½ needle (Becton Dickinson, Franklin Lakes, N.J.) held at an angle of about 10° to the tail. The infusion was made very slowly and at a steady rate.
After purification of the protein from snake venom, i.p. doses of 1 mg/kg, 10 mg/kg and 100 mg/kg were administered to healthy male mice (three animals per group) and the symptoms were observed and recorded. 0.9% NaCl was injected as control. Postmortem examinations were conducted on the animals after their death/sacrifice.

[1] = system: extrinsic pathway of blood coagulation (human plasma); experiment: Anticoagulant activity, prothrombin time; type: biochemical; conditions: 50 μM protein per assay, vs control
Protocol: (§3) The anticoagulant activity of the purified protein was tested by two coagulation tests using a BBL fibrometer. Blood plasma was collected from healthy human volunteers.
Prothrombin time—The prothrombin times were measured according to the method of Quick (25). 100 μl of 50 mM Tris-HCl buffer (pH 7.4), 100 μl of plasma and 50 μl of the protein dissolved in the assay buffer were preincubated for 2 min at 37° C. Clotting was initiated by the addition of 150 μl of thromboplastin with calcium reagent (Sigma-Aldrich, St Louis, Mo.).

[2] = system: intrinsic pathway of blood coagulation (human plasma); experiment: Anticoagulant activity, recalcification time; type: biochemical; conditions: 50 μM protein per assay, vs control
Protocol: as §3
Recalcification time—The recalcification times were measured according to the method of Langdell et al. (26). 100 μl of 50 mM Tris-HCl buffer (pH 7.4), 100 μl of plasma and 50 μl of the protein dissolved in the assay buffer were preincubated for 2 min at 37° C. Clotting was initiated by the addition of 50 μl of 50 mM CaCl2.

anesthetized male rats = experiment: Electrocardiogram monitoring and heart rate determination; type: in vivo, Sprague-Dawley rats; conditions: i.t.v., 1 mg/kg, 10 min after administration (FIG. 8)
Text: as §1, §2
For electrocardiogram (ECG) measurements, Sprague-Dawley rats were anesthetized with an i.p. dose of 7% chloral hydrate (5 ml/kg). […]

[3] = system: Langendorff isolated perfused rat hearts; experiment: Langendorff isolated perfused heart; conditions: 5 μM in KH solution, 10 min
Protocol: Rats were anesthetized with 7% chloral hydrate (5 ml/kg). 2 ml of 50 I.U. heparin (David Bull Laboratories, Warwick, UK) was injected i.p. 15 min prior to sacrificing the animal. The heart was excised rapidly and placed in oxygenated Krebs-Henseleit (KH) solution (in mM/1: NaCl 118.0, KCl 4.5, KH2PO4 1.4, MgSO4 1.2, NaHCO3 25, CaCl2 1.4 and glucose 11; pH 7.4) before the aorta was cannulated on the Langendorff apparatus. Non-recirculating mode of retrograde perfusion with KH solution was carried out at a constant flow (6-7 ml/min) at 37° C. The buffer was continuously bubbled with 95% O2 and 5% CO2. The hearts were allowed to equilibrate for 30 min and in study groups the buffer flow was switched to a second reservoir which contained 5 μM of the protein dissolved in KH solution, plain KH solution was passed for further 15 min in case of control group.
A water-filled latex balloon was attached to a pressure transducer and inserted through the mitral valve into the left ventricle (LV) through an incision in the left atrium. The pressure transducer was connected to a Powerlab (ADInstruments, Castle Hill, NSW, Australia) data recording system. The following indices of cardiac performance were measured and averaged from ten beats for each condition: heart rate (HR, in beats/min) and left ventricle diastolic end pressure (LVDEP, in mmHg), which is an index of contractile activity. […]

B1: β-cardiotoxin: three-finger toxin protein isolated from Ophiophagus hannah (king cobra) venom, SEQ ID No.3, β-adrenergic receptor blocker (protein)
chain: RKCLNTPLPLIYTTCPIGQDKCVKMTIKKLPSKYDVIRGCIDICPKSSADVEVLCCDTNKCNK
postmortem examination (Swiss albino male mice; i.p., 100 mg/kg): did not reveal any hemorrhage or visual damage to internal organs
time to death (Swiss albino male mice; i.p., 100 mg/kg): about 30 min
dose up to which the protein was not lethal (Swiss albino male mice; intraperitoneal): ≤ 10 mg/kg
change in clotting time, prothrombin time [1]: does not show any hemolytic or anticoagulant activity; also recorded: did not cause any significant changes in the clotting time
change in clotting time, recalcification time [2]: does not show any hemolytic or anticoagulant activity; also recorded: did not cause any significant changes in the clotting time
change in heart rate (ECG) (anesthetized male rats): dose-dependent decrease of the heart rate; also recorded: decrease in the heart rate; also recorded: dose-dependent decrease in heart rate
change in contractility (LVDEP) [3]: without any significant change in the contractility; also recorded: without affecting the contractility
change in heart rate [3]: dose-dependent decrease of the heart rate; also recorded: marked reduction in the heart rate
